In the supplement of paper PMC12667976:
± gives the standard error.

B1: library; numbered along this chain (parent)
chain: MATDAALRRLLRLHRTEIAVAVDSAFPLLHALADHDVVPEDKFQETLHLKEKEGCPQAFHALLSWLLTQDSTAILDFWRVLFKDYNLERYGRLQPILDSFPKDVDLSQPRKGRKPPAVPKALVPPPRLPTKRKASEEARAAAPAALTPRGTASPGSQLKAKPPKKPESSAEQQRLPLGNGIQTMSASVQRAVAMSSGDVPGARGAVEGILIQQVFESGGSKKCIQVGGEFYTPSKFEDSGSGKNKARSSSGPKPLVRAKGAQGAAPGGGEARLGQQGSVPAPLALPSDPQLHQKNEDECAVCRDGGELICCDGCPRAFHLACLSPPLREIPSGTWRCSSCLQATVQEVQPRAEEPRPQEPPVETPLPPGLRSAGEEVRGPPGEPLAGMDTTLVYKHLPAPPSAAPLPGLDSSALHPLLCVGPEGQQNLAPGARCGVCGDGTDVLRCTHCAAAFHWRCHFPAGTSRPGTGLRCRSCSGDVTPAPVEGVLAPSPARLAPGPAKDDTASHEPALHRDDLESLLSEHTFDGILQWAIQSMARPAAPFPS

Variants of: B1
Assay: AIRE transcriptional activation functional score (insulin promoter-GFP; nonsense median 0, synonymous median 1) (normalised score); higher = higher AIRE activity (more reporter activation)
Settings: with insulin promoter-GFP reporter in HEK293
Experimental: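 Deep mutational scan of full-length human AIRE (codon-optimized cDNA, DT-POPCode NNN libraries over three regions) integrated at a Bxb1 landing pad in HEK293 cells carrying an insulin core promoter-GFP reporter at a Flp-In site. Cells were sorted for the top 10% GFP about 14 days after transfection. Variant frequency log-ratios (select vs non-select, TileSeq) were rescaled so that the nonsense median is 0 and the synonymous median is 1, then averaged over biological replicates.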

Row | Variant | AIRE transcriptional activation functional score
1 | P539S | 0.85 ± 0.2
2 | L495K | 0.745 ± 0.16
3 | L495R | 0.848 ± 0.23
4 | Q173M | 2.11 ± 0.16
5 | E298H | -2.02 ± 0.31
6 | E45A | -0.429 ± 0.75
7 | E45F | 0.576 ± 0.049
8 | Q57V | 0.739 ± 0.5
9 | S169F | 1.46 ± 0.39
10 | S169P | 1.73 ± 0.82
11 | D23E | 1.02 ± 0.71
12 | E423P | 0.817 ± 0.18
13 | E423L | 1.28 ± 0.43
14 | E423F | 1.02 ± 0.066
15 | A281V | 0.872 ± 0.29
16 | A281C | 0.996 ± 0.17
17 | G240R | 1.01 ± 0.24
18 | P233Y | 0.576 ± 0.39
19 | P233I | 0.184 ± 0.24
20 | P233V | 0.512 ± 0.2
21 | A170H | 1.86 ± 0.43

Row | Variant | AIRE transcriptional activation functional score
22 | A170W | 1.84 ± 0.11
23 | G374C | 1.55 ± 0.21
24 | S339G | 0.951 ± 0.37
25 | I528F | 0.795 ± 0.1
26 | T463S | 1.01 ± 0.25
27 | K164M | 1.88 ± 0.24
28 | A537R | -0.0391 ± 0.22
29 | A537E | 0.915 ± 0.53
30 | S99D | 0.205 ± 0.069
31 | K52L | 1.11 ± 0.4
32 | K52V | 1.38 ± 0.28
33 | S249V | 1.12 ± 0.18
34 | T391S | 0.957 ± 0.28
35 | G180V | 0.54 ± 0.23
36 | G180S | 0.929 ± 0.73
37 | G180C | 1.24 ± 0.26
38 | K83C | 0.194 ± 0.21
39 | K83M | -0.821 ± 0.059
40 | T147W | 1.75 ± 0.18
41 | G424V | 1.25 ± 0.1
42 | S372V | 1.33 ± 0.1

Row | Variant | AIRE transcriptional activation functional score
43 | S372H | 1.13 ± 0.12
44 | S372L | 0.938 ± 0.21
45 | K395H | 0.628 ± 0.22
46 | G112I | 1.08 ± 0.67
47 | D105H | 0.701 ± 0.8
48 | D105T | 0.553 ± 0.56
49 | A432R | 0.993 ± 0.31
50 | P101Y | 0.166 ± 0.27
51 | L11K | 0.379 ± 0.093
52 | A141M | 0.533 ± 0.15
53 | A141S | 1.01 ± 0.49
54 | L29H | -0.121 ± 0.22
55 | P315T | 0.854 ± 0.19
56 | C55F | 0.897 ± 0.1
57 | C55N | -0.172 ± 0.48
58 | D312G | 0.92 ± 0.28
59 | D312S | 0.764 ± 0.21
60 | S250Y | 1.26 ± 0.29
61 | S250M | 1.68 ± 0.041
62 | G306F | 0.459 ± 0.082
63 | I309R | 0.877 ± 0.22

Row | Variant | AIRE transcriptional activation functional score
64 | H30K | 0.682 ± 0.08
65 | P355T | 1.09 ± 0.27
66 | P355L | 1.11 ± 0.19
67 | P355G | 1.06 ± 0.15
68 | D439F | -0.443 ± 0.34
69 | K222E | 0.916 ± 0.19
70 | S248A | 0.947 ± 0.56
71 | L128R | 0.525 ± 0.62
72 | S239A | 1.2 ± 0.52
73 | C457S | -0.11 ± 0.2
74 | D410R | 0.412 ± 0.15
75 | A2P | 1.55 ± 0.37
76 | S153G | 1.21 ± 0.36
77 | R132Y | 0.288 ± 0.26
78 | R132P | -0.258 ± 0.42
79 | R132C | -0.0301 ± 0.38
80 | A461E | 0.952 ± 0.25
81 | A142M | 0.975 ± 0.063
82 | E40C | -1.11 ± 0.58
83 | L285A | 1.37 ± 0.61
84 | A140K | 0.768 ± 0.51
